Fewer inactive variants are shown than the library holds.
B1: TPR 5TU (parent)
chain: GGAUCUUCUCGAUCUAACAAAAAAGACAAAUCUGCCACAAAGCUUGAGAGCAUCUUCGGAUGCAGAGGCGGCAGCCUUCGGUGGCGCGAUAGCGCCAACGUUCUCAACUAUGACACGCAAAACGCGUGCUCCGUUGAAUGGAGUUUAUCAUG

Variants of: B1
Experiment: polymerase ribozyme fitness, log enrichment relative to wild type (log ratio); higher = more active; in vitro selection for triplet polymerase activity
How it was run: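 Fitness is a logarithmic measure of how a genotype enriched relative to the wild type, with replicate averages weighted by inverse variance. The logarithm uses base 2, and enrichment came from Illumina sequencing of input and output libraries. Those libraries were PCR-built, transcribed mutants of each subunit of a heterodimeric triplet polymerase ribozyme, passed through one triplicate in vitro selection round that included frozen incubation at −7 °C, gel excision of extended constructs and streptavidin-bead capture. Genotypes were kept only if they had ≥10 input reads and ≥1 read per output.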

Variant	polymerase ribozyme fitness (log ratio)
GGAUCUUCUCGAUCUAACAAUAAAGACAAAUCUGCCACAAAGCUUGAGAGCAUCUUCGGAUGCAGAGGCGGCAGCCUGCGGUGGCGCGAUAGCGCCAACGUUCUCAACUAUGACACGCAAAACGCGUGCUCCGUUGAAUGGAGUUUAUCAUG [A21U U78G]	≤ -4.2
GGAUCUUCUCGAUCUAACAAAAAAGACAAAUCUGCCACAAAGCUUGAGAGCAUCUUCGGAUGCAGAGGCGGCAGCCUUCGGUGGCGCGAUAUCGCCAACGUUCGCAACUAUGACACGCAAAACGCGUGCUCCGUUGAAUGGAGUUUAUCAUG [G92U U104G]	-0.858
GGAUCUUCUCGAUCUAACAAAAAAGACAAAUGUGCCACAAAGCUUGAGAGCAUCUUCGGAUGCAGAGGCGGCAGCCUUCGGUGGCGGGAUAGCGCCAACGUUCGCAACUGUGACACGCAAAACGCGUGCUCCGUUGAAUGGAGUUUAUCUUG [C32G C87G U104G A110G A150U]	≤ -4.2
GGAUCUUCUCGAUCUAACAAAAAUGACAAUUCUGCCACAAAGCUUGAGAGCAUCUUCGAAUGCAGAGGCGGCAGCCUUCGGUGGCGCGAUAGCGCCAACGCGCUCAACUAUGACACGCAAUACGCCUGCUCCGUUGAAUGGCGUUUAUCAUG [A24U A30U G59A U101C U102G A121U G126C A142C]	≤ -4.2
GGAUCUUCCCGAUCUAACAAAAAAGACAAAUCUGGCACUAAGCUUGAGAGCAUCUUCGGAUGCAGAGGCGGCAGCCUUCGGUGGCGCGAUAGCGCCAACGUUGUCAACUAUGACACGCAAAACGCGUGCUCCGUUGAAUGGAGUUUAUCAUG [U9C C35G A39U C103G]	≤ -4.2
GGAUCUUCCCGAUCUAACAAAAAAGACAUACCUGCCACAAAGCAUGAGAGCAUCUUCGGAUGCAGAGGCGGCAGACUUCGGUGGAGCGAUAGCGCCAACGUUCUCAACUAUGACACGCAAAACGCGUGCUCCGUUGAAUGAAGUUUAUCAUG [U9C A29U U31C U44A C75A C85A G141A]	≤ -4.2
GGAUCUUCUCGAUCUAACAAAAAAGACAAAUCUGCCACAAAGCUUGAGAGCAUCAUCGGGUGCAGAGGCGGCAGCCUUCGGUGGCGCGAUAGCGCCAACGUUCUCAACUAUGACACGCAAAACGCGUGCUCCGUUGCAUGGAGUUUAUCAUG [U55A A60G A137C]	-3
GGAUCUUCUCGAUCUAACAAAAAAGACAAAUCUGCCACAACGCUUGAGAGCAACUUCGGAUGCAGAGGCGGCAGCUUUCGGUGGCGCGAUAGCGCCAACGUUCUCAACUAUGACACGCAAAACGCGUGCUCCGUUGAAUGGAGUUUAUCAUG [A41C U53A C76U]	-1.65
GGAUCUUCUCGAUCUAACUAAAAAGACAAAUCUGCCACAAAGCUUGAGCGCGUCUUCGGAUGCAGAGGCGGCAGCCUUCGGUGGCGCGAUAGCGCCAACGUUCUCGACUAUGACACGCAAAACGCGUGCUCCGUUGAAUGGAGUUUAUCAUG [A19U A49C A52G A106G]	≤ -4.2
GGAUCUUCUCGAUCUAACAAAAAAGACAAAUCUGCCACAAAGCUUGAGAGCAUCUUCGGAUGCAGAUGCGGCACCCUUCGGUGGCGCGAUAGCGCCAACGUUUUCAACUAUGACACGCAAUACGCGUGCUCCGUUGCAUGGAGGUUAUCAUG [G67U G74C C103U A121U A137C U144G]	≤ -4.2
GGAUCUUCUCAAUCUAACAAAAAAGACAAAUCUGCCACAAAGCUUGAGAGCAUCUUCGGAUGCAGAGGCGGCAGCCUUCGGUGGCGCGAUAGGGCCAACGUUCUCAACUAUGACACGCAAAACGCGUGCUCCGUUGAAUGGAGUUUAUCAUG [G11A C93G]	≤ -4.2
GGAUCUUCUCGAUCUAACAAAAAAGACAAAUCUGCCACAAAGCUUGAGAGCAUCAUCGGAUGCAGAGGCGGCAGCCUUCGGUGGCGCGAUAGCGCCAACGUUCUGAACUAUGACACGCAAAACGCGUGCUCCGUUGAAUGUAGUUUAUCAUG [U55A C105G G141U]	-2.82
GGAUCUUCUCGAUCUAACAAAAAAGACAAAUCUGCCACAAAGCUUGAGAGCAUCUUCGGAUGCAGAGGCGGCAGCUUUCGGCGGCGCGGUAGCGCCAACGUUCUCAACUAUGACACGCAAAACGCGUGCUCCGUUGAAUGGAGUUUAUCAUG [C76U U82C A89G]	-1.3
GGAUCUUCUCGAUCUAACAAAAAAGACAAAUCUGCCACAAAGCUUGAGAGCAUCUUCGGAUGCAGAGGCGGCAGCCUUCGGUGGCGCGAUAGCGCCAACGUUCUCAACUAUGACAUGCAAAACACGUGCUCCGUUGAAUGGGGUUUAUCAUG [C116U G124A A142G]	-2.45
GGAUCUUCCCGAUCUAACAAAAUAGACAAAUCUGCCACAAAGCUUGAGAGCAUCUUCUGAUGCAGAGGCGGCUGCCUUAGGUCGCACGAUAGCGCCAACGUUCUCAGCUAUGACACGCAAAACGCGUGCUCCGUUGAAUGCAGUUUAUCAUG [U9C A23U G58U A73U C79A G83C G86A A107G G141C]	≤ -4.2
GGAUCUUCUCGAUCUACCAAUAAAGACAUAUCUGCCACAAAGCUUGAGAGCAGCUUCGGAUGCAGAGGCGGCGGCCUUCGGUGGCGCGAUAGCACCAACGUUCUCAACUAUGACACGCAAAACGCGUGCUCCGUUGAAUGGAGUUUAUCAUG [A17C A21U A29U U53G A73G G94A]	≤ -4.2
GGAUCUUCUCGAUCUAACAAGAAAGACAAAUCUGCUACAAAGCUUGAGAGCUUCUUCGGAUGCAGAGGCGGCAGCCUUCGGUGGCGCGAUAGCGCCAACGUUCUCAACUAUGACAUGCAUAACGCGUGCUCCGUUGAAUGGAGCUUAUCAUG [A21G C36U A52U C116U A120U U144C]	-3.59
GGAUCUUCUCGAUCUAACCAAAAAGACAAAUCUGCCACAAAGCUUGAGAGCAUCUUCGGAUGCAGAGGCGGCAGCCUUCGGUGGCCCGAUAGCGCCAAUGUUCUCAACUAUGACACGCAAAACGCGUGCUCCGUUGAAUGGAGUUUAUCAUG [A19C G86C C99U]	-2.28
GGAUCUUCUCGAUCUAACAAAAAAGACAAAUCUGCCACAAAGCUUGAGAGCAUCUUGGGAUGCAGAGGCGGCAGCCUACGGUGACGCGAUAGCCCCAACGUUUUAAACUAUGACACGCAAAACGCGUGCUCCUUUGAAUUGAGCUUAUCAUG [C57G U78A G84A G94C C103U C105A G133U G140U U144C]	≤ -4.2

Reference: the RNAGym collection of RNA variant scans (doi:10.1073/pnas.2313332121)
